Results taken from the DeepSol protein solubility set.

Test: soluble on expression in E. coli; label from the status in PepcDB or PDB records

Sequence | soluble on expression in E. coli
MAQKKGRESDSVAEGLRPAEEGDVLELDECWTYVRERANKRWLWVALCRRTRQVVAFVIGDRSARTCARLWSRIPEEYRQGRSFSDFWKSYRPVFAGDPSHRQVGKSSGEMAHVERFFGRLRQKLARYVRRTRAASESERMLHLTTKLFVEWYNEAIT | not soluble
MISVNKVFYAHSERFQMQNMNVHIKAGEVVSLIGPNGSGKSTLLRLMARLLKQSEGDIVLDGKSIHTMKSADVAKQLAMLPQMHDHQLDLTVKELIEFGRGPHKSWRGRLNKEDEEIVDWALSVTNLEGYEYRLLQSLSGGERQRAWIAMTLAQRTNVLLLDEPTTFLDIVHQLEVMELVKRLNEEFGMTIIMVLHDINQAAQYSDRLLVLKRGKLQYDGVPEEVLCHEMFQHIFGIEVDIFQGSEKPFFTPKRISKKGGAKCEQKNVLPLS | not soluble
MEKVQSISNGTNSISYTLTRSRRKTVGIRITENGEVKVAAPLNIPDRQLKDIILKKLPWILRKQEELRKICEESRLENKFADGETFLYLGKEYTLRIAKGVLPEGVNLEENYIVVAADETKVSVNGPQYIRNVLKNFYVNQFVDIAKTRMDFFSPKIGVCPRKLTVREQKTRWGSCSSKGNISLNWKLVMAPMEVIDYVIVHELCHMKEMNHSKNYWNIVKSIIPDFELRRKWLKDNGHRLLM | soluble
MGSDKIHHHHHHMNIRSRTNNADDLAWVHLIERRKQVELWQFSCLRQSYTLELSPNVMEGVKPEGQLVMVQWSPSNDLQRVKVTLNIHEVTDQAAVNHHFKLVPAGCESIIIDIWGILGLIHDEALRRFYLAVLLNNELMGQFFNARASRSHHHNHACGLLEHSHEVAVTAAMLCWRYNVGPLSVGVAFIGGLLHDIGKIHLFYNADTRDGIAGSHESYNFMVLAEPLELLYRSSPKVFEALSSCLSVKIGRRSEAYIPASMVRLCDNLSMEVCHWRTAFADVPPHHWYAHSAMNDQWYKRLG | not soluble
MQDGMYQRFLRQHVHPEETGGSDRYCNLMMQRRKMTLYHCKRFNTFIHEDIWNIRSICSTTNIQCKNGKMNCHEGVVKVTDCRDTGSSRAPNCRYRAIASTRRVVIACEGNPQVPVHFDG | soluble
MKGYFETNRIQHIIVDEAQNFHTEDGNWCEKAKGITQGGKACPRMFWIFLDYFQTSHLKESGLPDFELQYPKEELTQVVRNGDKIAEFLQQELGKIRDNPPCSIPRASLNIVHEFKWSQSISGTLKIKYLTSEKMVSYVANKCDVFLSKGYSPQDIAVLFSTDREKKAYEHMFLREMRKKRRASQMNDTSVCHSNMFDRIRRFSGLERSIVFGINPIATEQPISHNLLICLASRAMKYLYILYALTPEGQSSTVAC | not soluble
MRYLLSLSVFLIVSLNPAFAEWTGDNVEGMHSGMIINKFHSGQVDGKPYFCIEAFKPSTTITACSVKDTSIWGASYNTLYDQAMYYYTTGKRIRVYYAPDVWTNNSFVRALTANALVGFSTCISESSCFGPDRKKHKFTVH | not soluble
MALKKAMLLIKNGKILTMTGVNYDSGSVLIDNGKIIKVGENIDVDESCEIIDADGFWVMPGIIEAHCHVGIQEEKRGFEGNDCNEMTNPVTPYLRALDGINPMDSAFYTALTAGITGIMVGPGSANVVGGQWMFLKTYGRAIDKMVVLQPSAMKIAFGENPKANYDKKNMMPSTRIAIAAMLREELFEAQQYYEKRKNAEKSGDSFNKEFRKECWVPVFDKKIPLKAHVHRADDILTAIRIAKEFNLNLTLDHCTEGHLVAKEIKESGFPAIVGPTLTSRNKIETQYADFKTAGILHNEGVKVAITTNHPVTRIQDLLICAGLAAKEGLGIEEGLKAITINPAEICNVANRVGSIEVNKDADIAIFDGNPMETFTKTMYTIINGEIVYSLKDKNYEGHHHHHH | soluble
MNMLEKIQSQLEHLSKSERKVAEVILASPDNAIHSSIAALALEANVSEPTVNRFCRSMDTRGFPDFKLHLAQSLANGTPYVNRNVNEDDSVESYTGKIFESAMATLDHVRHSLD | not soluble
MIMNIFLIKEADLVEAAEIISASFKNYEVMRYLFNDSGNDHEAHITEFFLAFYQFGLANNWPCYGVRVNEQWVAVALGCNSSEQEIIKGSDDALTEFYKKISPQACCRIEQYDQQADAAHPSKAHFFIDSIGTHPDHQGKGYAKALILKFQELSKSDVHSTGVGLNTESDNNINFYQHLGYQVKAQQKIGSLTSWSLFRTDD | not soluble
GPGSMLRPSSLCRVAFPVHRDTTKTPRLVKEVGSWLYKRETVESFRAWCKANNVRGSGNVKVVSTMHYARCLRAARHLRPGQAIITLPHTACFNFLVVAKEMYGVSGKGGTVSHNFPLEVNWMNYDERCSFLRSASMSELTTAGWMCRIASLEESRFTPYIHWLLEDTRGRDGVANGVSRERGEESGLVDHYFSEMATDACEDPEEFLENLFRSFAALHLRAVPIESAAIRLFLPGTNFFKAKVDEMFVPTLMPLIDAVPQLEDGLHNTAVEYFPFSDEETLLKQCKDLVLSEGGTNEMRELRRRCLAQEQGAGAFFALRALCPIEEGDYLYVRGVPKLGAPEQESMTVRVMEANRLLNNE | not soluble
FDGNLKRYLKSEPIPESNDGPVKVVVAENFDEIVNNENKDVLIEFYAPWCGHCKNLEPKYKELGEKLSKDPNIVIAKMDATANDVPSPYEVRGFPTIYFSPANKKLNPKKYEGGRELSDFISYLQREAT | soluble
MASFARRAMSLAQIPSARISSGAASIGQRRCLAGAADHHGSTKVDFWKQPTNPGNWKEEHFVLISLSGWGLLFYSGYKLATGGKKEYTMSFIVTRKTFYGETSHSHALCFPF | not soluble
MMINTQEDKLVSAHDAEEFHRFFVGHDSDLQQEVTTLLTREAHLLDIQAYKAWLEHFVAPEIKYQVISRELRSTSERRYQLNDAVNLYNENYQQLKVRVEHQMDPQNWANNPKIRFTRFVTNVTAAKDKSAPEILHVRSNLILHRARRENQVDVFYATREDKWKRIEGGGIKLVERFVDYPERIPQTHNLLVFL | soluble
MGSDKIHHHHHHMIRNCFLCAAKTDNVFSSTWMLPGLAPTEIGFSICPKCGSVCQSPSVSYDDMMTIYSSIAVYTNPGRQGLPSSAKIRDLDEQIQFIKRGIGHLPKSAMQIGSSDGYTLSRFRQAGVELVMGVEPGSTSIEIAKRLYNIDCIHGTAEDFETDKDFELILLTHVLEHIYEPQVTLDKCRKIQNTPGEKFIYVEVPLMATAASLCPGFLTFEHVNYYTKENLICSLTQAGYWPVSVVEHFNSNLSPIIGILASTREQHHYDVMKMDVQLNRKRLSEYRQKELSYWQNCVDCIKVSLQQSQRIFLWGAGIHTCQLLANTDLLDHSRIFGLTDTSSLKWGLRQGEWICQDPQQIDWQVGDTVLISSYASEKEIFDALYWLRDKGVNTLRLHNVDDTRAIV | not soluble
ASYWSLQDILLRQGYRENLHPDDLIEGYRELLADSVHRCLQSDVEVGLFLSGGIDSAAVAHFAAEKQDLHTFTVLSQSTFTNEDAKYAHWLAKDLHLPNHQVLYQLGNDELLQPESYKHLLWICETPFCGPEQLYKFHLHKYAKAIRPNLKVMLTGQGSDEFNGGYSTTLSPAENPSWEGFIESVNTMEMNRLHRLQGNIFRVWEEHFGLSPINLSYLKSNDSSQADPWQSYVLTKYRDLQMYNCWHEDRIAAANHIENRVPFLDHRLVEWVCGIPDGLRKDLLWDKSVLRKSLTNELHTSYTHRPKVPFFYGKDVRYTHKMMFHLLKKNNYQLIEEAFSHSDASSIIQVEHIHAIM | not soluble
MRGSHHHHHHTDPALRAKRAVVVFSGGQDSTTCLVQALQQYDEVHCVTFDYGQRHRAEIDVARELALKLGARAHKVLDVTLLNELAVSSLTRDSIPVPDYEPEADGIPNTFVPGRNILFLTLAAIYAYQVKAEAVITGVCETDFSGYPDCRDEFVKALNHAVSLGMAKDIRFETPLMWIDKAETWALADYYGKLDLVRNETLTCYNGFKGDGCGHCAACNLRANGLNHYLADKPTVMAAMKQKTGLRGLCGR | soluble
EFKHILVGVDDSDDAQLAFRYAINRAKSDGAKLTIVSILEQDNMNVYEAMSKDFVHGQRKDLEEHVQQYQKLARDFGVTDVNAVVDEGDPGETIVKTVIPALKPDLLVIGSVAKHGVRKYFGSQAAYMAKHAPISVLVIR | not soluble
MKRTIQETPGPSSTTVPPPKKLNSQRNGSNLEPGSIYFTPIGGISVPRQESESSRSLDEILADIRPINSLHFSFMLDFEFLIGSYPPSLREYPITLVVGAPDAPDLLKCTKNQKLVTVVGASLPIPFGTHHTKMSILEDEDGRFHVIVSTANLVPDDWEFKTQQFYYNFGVKIASGTVPRSDFQDDLLEYLSMYRNQLDTWKQLLQKVDFSQISDRLIFSTPGYHTDPPTQRPGHPRLFRILSEKFPFDASYEHTERCTFVAQCSSIGSLGSAPINWFRGQFLQSLEGANPSPKQKPAKMYLVFPSVEDVRTSCQGYAGGCSVPYRNSVHARQKWLQGNMCKWRSNAKRRTNAVPHCKTYVKYDKKVAIWQLLTSANLSKAAWGEVSFNKSKNVEQLMIRSWEMGVLITDPSRFNIPFDYPLVPYSATDEPFVTDKKHEKPDILGCIWTPP | not soluble
MNQSCPNKTSFKIAFIQARWHADIVDEARKSFVAELAAKTGGSVEVEIFDVPGAYEIPLHAKTLARTGRYAAIVGAAFVIDGGIYDHDFVATAVINGMMQVQLETEVPVLSVVLTPHHFHESKEHHDFFHAHFKVKGVEAAHAALQIVSERSRIAALV | soluble
MTPTTTPVSNPDALSTGTQDVHTLKGTLQRLAPGTPLRDGLDRIVRGHTGALIVIGDDENVSSICDGGFEFDVSFAATRLRELCKMDGAVILSSDLERIKRANVQLLPSPTWPTQESGTRHRSAERTALHTGVPVIAVSESQNTITLYVEGKSHMLEQPAALLNRANQALGTMERYRDRLDQVNNRLHLAELHSYVTVIDVVSVIQREEMLRRVGEIIDGDVLELGKDAKEIQIQLSELRGDNDRERESIIADYLVTDGIPADEEIHAALEAISHLDDKALLNPANIARVLGLPPTEEALDEPVTPRGYRTLNRIPRVQKFLMDKLIVEFGNLDALLNASVEDLSAVDGVGSLWARHITDGLGRLS | not soluble
RPQISIRVDVPKEEKGIEAMICLDISNSMLCEDVKPNRLSFAKQVLGKLFDGLQNDKVGLVVFAGNAYTQIPITTDLSAAKQFLADISPNMVTAQGTAIGAAIELASKSFSDNKEIGKTIIVLTDGENHEGNAIEAAQQAHEAGIRVNVIGLGTALGAPIPIEEGYLKDETGNPVVTKFDEKMCRDIASAGEGTFFSGQSASALVRAIESQLDKLPKAVLSSSSSSGYREV | not soluble
MGSDKIHHHHHHLDELRSGLDKPSHFRLGLAMWSHSNWQESVYGHGIKQAERLARYATIFNTVEGNTSFYATPAQQTVMNWHSATPDDFRFTFKLPQTITHQRLLQHCGQELKDFFQVMAPLIDKTGIWKIQLPAHFGPENLPVLAQFLNQVPQGLTYGVEVRHAAFFAKGDAERALNRLLIDKKVNRIIMDSRPLFALPPSNAAIIDAHKKKPRVPVHAIATANNPVVRFIGQPDDAVAQLAQQGVSALPKNNDAFFDNWLAQLPLWLAEGREPYLFIHTPDNETAPELAIRLYQTLRSQIAAQIQLAELSLLEKIPEETSTQMGLAW | not soluble
GGYSSEQQEDLEAIAPAVVQALQRKKAEEALRLSNIYNRSLIESSLDPLVTIGRDGKITDVNCATEQVTGYPRNDLIKTDFSDYFTEPENARAGYKQVFTDGEVRDYPLEIQHKDGHITPVLYNASVYRDEN | not soluble
